This note sets out measurements from publication PMC8643695 (Nucleic Acids Research, 2021).

Where two headings read alike, the source gives them in different places.

Data set [1] addresses C9A SpCstR C9A (Streptococcus pneumoniae D39) (UniProt A0A0H2ZNA4). Description: fluorescence anisotropy. The following applies: 10 nM dsDNA, 25 mM Tris-HCl, 200 mM NaCl, 2 mM EDTA, 2 mM TCEP, pH 8.0, 25 C. On the technique in general: Fluorescence polarisation rises when a labelled molecule tumbles more slowly, as on binding a larger partner.
Data set [2] has as its system SmCstR (Streptococcus mitis SVGS_061). Description: fluorescence anisotropy. The following applies: 10 nM dsDNA, 25 mM Tris-HCl, 200 mM NaCl, 2 mM EDTA, 2 mM TCEP, pH 8.0, 25 C.
Data set [3] deals with the molecule itself. Nature of the data set: crystal structure.
Data set [4] concerns the molecule itself. Nature of the data set: crystal structure. The source holds these as a separate data set.
Data set [5] concerns the molecule itself. Description: crystal structure. This is another data set of the same source.
Data set [6] has as its target C9R SpCstR (Streptococcus pneumoniae D39, UniProt A0A0H2ZNA4 1-85, C9R). Nature of the data set: fluorescence anisotropy.

Sp adcA (AdcR) operator gave a Ka in data set [1] of 490000 M⁻¹. The molecule “TACCTCCAAATATACCCTTATGGGGTATATTAAA (double strand) [S. mitis cst operator]” returned a Ka in data set [2] of 1.4e+08 M⁻¹.

B1: selenomethionine (SeMet)-substituted C9A SpCstR (natural protein, Streptococcus pneumoniae D39)
chain: TNSKYITALKRSEGQLRGIQKMIEGDRDCADIVTQLTAVRSSVERVIEMIITENLTECINQPLDDSEAQKERLEKAIRYLIKRK
modifications: selenomethionine in place of methionine
Turning to B1, the “stoichiometry N” value in data set [3] amounted to 4.

B2: C9A S. pneumoniae CstR (locus tag SPD_0073) (natural protein, Streptococcus pneumoniae D39)
chain: TNSKYITALKRSEGQLRGIQKMIEGDRDCADIVTQLTAVRSSVERVIEMIITENLTECINQPLDDSEAQKERLEKAIRYLIKRK
For the molecule B2, the “stoichiometry N” value in data set [4] came out at 6.

B3: C9A/N55A S. pneumoniae CstR (locus tag SPD_0073) (natural protein, Streptococcus pneumoniae D39)
chain: TNSKYITALKRSEGQLRGIQKMIEGDRDCADIVTQLTAVRSSVERVIEMIITEALTECINQPLDDSEAQKERLEKAIRYLIKRK
On to B3, for which the “stoichiometry N” value in data set [5] came to 4.

B4: S. mitis cst operator (dsDNA)
DNA 1: TACCTCCAAATATACCCTTATGGGGTATATTAAA
DNA 2: TTTAATATACCCCATAAGGGTATATTTGGAGGTA
With B4, the binding result in data set [6] was “binds”.

A word on the stoichiometry N: it is a count of units in the complex or per binding partner.
